The target in series [1] is SUSIBA1 (Hordeum vulgare). Description: EMSA. As to conditions: tags: overexpressed in and purified from E. coli; label: 32P; second strand printed as 3'-5' complement, annealed duplex. The method, then: (§1) Bars in (A-D)=5 μm and in (K-M)=100 μm. One-way ANOVA was used (Error bars show s.d. and **p≤0.01 between heat-killed background and living agrobacteria).
(§2) Having identified SUSIBA1 p, the potential involvement of SUSIBA1 in fructan synthesis was investigated. […] Electrophoretic mobility shift assay (EMSA) was used to study the in vitro interaction between SUSIBA1 and the promoter of 6-SFT that encodes a key enzyme in synthesis of fructan in barley. EMSA was performed as described previously using overexpressed and purified SUSIBA1 from E. coli (FIG. 8E to 8J). In accordance with the hallmark of WRKY proteins, it was shown that the […] TF bound to the W-box DNA cis-element. […] Examination of the 6-SFT promoter led to identification of two SUREa, three W-box and one SP8a element (FIG. 8E). Using different combinations of the restriction enzymes BstXI, PvulI and SpeI, the full-length promoter (fragment 1) was resolved into four fragments (fragments 2-5, FIG. 8E). […] To confirm the specificity of the binding activity, the element sequences (FIG. 8I) were engineered and the binding of SUSIBA1 was tested. […] No binding activity of SUSIBA1 to the engineered element sequences, i.e., SP8a M, W-box M and SUREa M4 also indicated the reliability of EMSA in the assay system (FIG. 8J). […]
For orientation: Mobility shift assays separate free from complexed probe on a gel.

For series [2], the target named is SUSIBA1 (Hordeum vulgare). Briefly: EMSA; 0.0125-0.2 ug SUSIBA1 prevents binding of 0.2 ug SUSIBA2 to the W-box. To be noted: tags: overexpressed in and purified from E. coli; label: 32P. The method, then: (§3) The infiltrated leaves were incubated at 40 mM Suc. Two days after infiltration and incubation, qPCR analysis was performed. (C) Transcript levels of SUSIBA2 after co-infiltration of agrobacteria containing p35S:SUSIBA2 with the double-stranded decoy oligoes upon antisense inhibition of SUSIBA1. (D) Transcript levels of SUSIBA2 after infiltration of agrobacteria containing p35S:SUSIBA2 alone or the double-stranded decoy oligoes alone at 100 mM Suc. The infiltrated leaves were incubated at 100 mM Suc for two days before analysis. Significant differences are analyzed statistically between p35S:SUSIBA1 and decoy oligoes, and indicated by asterisks (**p≤0.01) in (B), and between p35:SUSIBA2 and decoy oligoes in (C), and between p35:SUSIBA2 and decoy oligoes in (D). One-way ANOVA was used (Error bars show s.d.) Three independent experiments were performed (n=3). (E) EMSA analysis of competitive activity to the W-box in the SUSIBA2 promoter between SUSIBA2 and SUSIBA1. EMSA of binding activity to the W-box of SUSIBA2 (left panel) and SUSIBA1 (middle panel) and SUSIBA2 and SUSIBA1 in competing (right panel). SUSIBA2 and SUSIBA1 were overexpressed and purified from E. coli and challenged with two oligoes. […]

The target in series [3] is SUSIBA2 (Hordeum vulgare, UniProt Q6VWJ6 SEQ:1-573). Briefly: EMSA; 0.2 ug SUSIBA2; displaced by SUSIBA1. As to conditions: tags: overexpressed and purified; label: 32P. The method, then: as §3
Chain of SUSIBA2 (Q6VWJ6 whole entry): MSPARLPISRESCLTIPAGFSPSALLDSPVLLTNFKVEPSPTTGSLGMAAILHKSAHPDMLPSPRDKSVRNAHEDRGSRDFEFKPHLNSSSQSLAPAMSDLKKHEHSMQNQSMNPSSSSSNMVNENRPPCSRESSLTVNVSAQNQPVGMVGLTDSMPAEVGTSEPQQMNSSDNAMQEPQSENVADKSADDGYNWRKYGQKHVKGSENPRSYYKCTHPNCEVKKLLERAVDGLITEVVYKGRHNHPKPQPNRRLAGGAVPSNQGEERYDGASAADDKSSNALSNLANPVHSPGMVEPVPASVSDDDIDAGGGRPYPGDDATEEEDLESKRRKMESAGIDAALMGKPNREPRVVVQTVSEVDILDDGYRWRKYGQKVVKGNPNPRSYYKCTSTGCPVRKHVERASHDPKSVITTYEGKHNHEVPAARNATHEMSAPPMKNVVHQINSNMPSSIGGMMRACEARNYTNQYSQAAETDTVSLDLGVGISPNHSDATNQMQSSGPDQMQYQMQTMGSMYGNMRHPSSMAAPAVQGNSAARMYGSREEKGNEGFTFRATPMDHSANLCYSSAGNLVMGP
Series [4] concerns the target SUSIBA1 (Hordeum vulgare). Description: EMSA; A-stretch substitution. To be noted: tags: overexpressed in and purified from E. coli; label: 32P. As for the experimental part: as §1, §2

Chain of SUSIBA1 (Hordeum vulgare) (Q6VWJ6 293-573): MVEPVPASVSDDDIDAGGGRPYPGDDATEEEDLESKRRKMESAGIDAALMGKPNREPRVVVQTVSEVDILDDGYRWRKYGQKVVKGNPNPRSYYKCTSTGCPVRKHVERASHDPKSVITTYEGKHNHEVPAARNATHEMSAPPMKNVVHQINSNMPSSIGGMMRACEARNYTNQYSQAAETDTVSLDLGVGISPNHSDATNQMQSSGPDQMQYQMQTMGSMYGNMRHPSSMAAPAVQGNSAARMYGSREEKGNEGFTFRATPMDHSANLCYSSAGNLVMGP

B1: 6-SFT SUREa (dsDNA)
DNA 1: CACACATGGCACGCCAAAAC
DNA 2: GTTTTGGCGTGCCATGTGTG
Take B1: the binding result in series [1] was “binds”.

B2: SUSIBA2 promoter W-box oligo (dsDNA)
DNA 1: TAGGTCGTCAATTTGACTTATATAAAATAT
DNA 2: ATATTTTATATAAGTCAAATTGACGACCTA
Turning to B2, the binding result in series [2] and in series [3] was “binds” throughout.

B3: 6-SFT SP8a (dsDNA)
DNA 1: CTGTACTGTGTTTTTAGCCT
DNA 2: AGGCTAAAAACACAGTACAG
B3: the binding result in series [1] was “binds”.

B4: SUREa M4 (dsDNA)
DNA 1: CAAAAAAAAAAAAAAAAAAC
DNA 2: GTTTTTTTTTTTTTTTTTTG
For the molecule B4, the binding result in series [4] is listed as “no binding”.

Values taken from patent US20200040045, “CARBOHYDRATE PRODUCING PLANT MATERIAL” (GREEN RICE SWEDEN AB, published 2020).
